Molecular target: α5β1 integrin (UniProt P08648)
Assay: SPR

DisBa-01 (disintegrin of Bothrops alternatus), recombinant His-tag protein (natural protein; other documents disagree on this pair)
Kd: 76.2 µM
